In data set [1] the test system is transgenic mouse model p16-3MR. The note with it: cited from earlier work; for Effect of elimination of senescent cells on running activity and strength: after doxorubicin or paclitaxel.
The test system of data set [2] is transgenic mouse model p16-3MR. The note with it: cited from earlier work.
For data set [3], the system named is breast cancer cells (MMTV-PyMT). The conditions noted are these: cited from earlier work.
In data set [4] the test system is transgenic mouse model p16-3MR. The note with it: cited from earlier work; for Induction of senescence in vivo: keratinocytes, endothelial cells, fibroblasts and smooth muscle cells; for p16INK4a expression in the skin: mice administered the agent.
For data set [5], the system named is human histiocytic lymphoma U937 cell line. Description: Senescence-associated β-galactosidase assay by fluorescent microscope imaging. Format: cell-based. The protocol:
Cells from the human histiocytic lymphoma U937 cell line were treated with doxorubicin, a chemotherapeutic agent, to induce senescence. Cells were treated with 0 μM, 0.01 μM, 0.1 μM or 1 μM doxorubicin for 3 days, or were treated with 0 μM, 0.1 μM or 1 μM doxorubicin for 6 days. Senescence was measured with a senescence-associated β-galactosidase assay by fluorescent microscope imaging.

For data set [6], the system named is murine embryonic fibroblasts, murine dermal fibroblasts and human dermal fibroblasts. The note with it: fibroblasts treated in vitro; cited from earlier work.
Data set [7] has as its target carboxymethyl lysine conjugated to keyhole limpet hemocyanin (CML-KLH). Nature of the data set: direct ELISA, CML-KLH coat 1 ug/mL, antibody at 50 ug/mL.
Data set [8] shares this target. Description: direct ELISA, CML-KLH coat 1 ug/mL, antibody at 0.07 ug/mL. A general note: In an ELISA, binding on a coated surface is turned into a signal by an enzyme label.
The target is the same in data set [9]. Nature of the data set: direct ELISA, CML-KLH coat 1 ug/mL, antibody at 0.21 ug/mL.
For data set [10] the target is unchanged. Description: direct ELISA, CML-KLH coat 1 ug/mL, antibody at 0.62 ug/mL.
The target is the same in data set [11]. Nature of the data set: direct ELISA, CML-KLH coat 1 ug/mL, antibody at 1.85 ug/mL.
The target is the same in data set [12]. Nature of the data set: direct ELISA, CML-KLH coat 1 ug/mL, antibody at 5.56 ug/mL.
For data set [13] the target is unchanged. Nature of the data set: direct ELISA, CML-KLH coat 1 ug/mL, antibody at 16.67 ug/mL.
Data set [14] shares this target. Description: direct ELISA, CML-KLH coat 1 ug/mL, antibody at 0 ug/mL (buffer control, background).
A further data set relates to CML-KLH. Description: Direct binding ELISA, CML-KLH coat. The note with it: for OD450 absorbance: CML-KLH Coat. The source says:
(§1) The binding of the murine (parental) and chimeric anti-AGE antibodies described in Example 3 was investigated by a direct binding ELISA. An anti-carboxymethyl lysine (CML) antibody (R&D Systems, MAB3247) was used as a control. CML was conjugated to KLH (CML-KLH) and both CML and CML-KLH were coated overnight onto an ELISA plate. HRP-goat anti-mouse Fc was used to detect the control and murine (parental) anti-AGE antibodies. HRP-goat anti-human Fc was used to detect the chimeric anti-AGE antibody.
(§2) The antigens were diluted to 1 μg/mL in 1× phosphate buffer at pH 6.5. A 96-well microtiter ELISA plate was coated with 100 μL/well of the diluted antigen and let sit at 4° C. overnight. The plate was blocked with 1×PBS, 2.5% BSA and allowed to sit for 1-2 hours the next morning at room temperature. The antibody samples were prepared in serial dilutions with 1×PBS, 1% BSA with the starting concentration of 50 μg/mL. Secondary antibodies were diluted 1:5,000. 100 μL of the antibody dilutions was applied to each well. The plate was incubated at room temperature for 0.5-1 hour on a microplate shaker. The plate was washed 3 times with 1×PBS. 100 μL/well diluted HRP-conjugated goat anti-human Fc secondary antibody was applied to the wells. The plate was incubated for 1 hour on a microplate shaker. The plate was then washed 3 times with 1×PBS. 100 μL HRP substrate TMB was added to each well to develop the plate. After 3-5 minutes elapsed, the reaction was terminated by adding 100 μL of 1N HCl. A second direct binding ELISA was performed with only CML coating. The absorbance at OD450 was read using a microplate reader.
(§3) The OD450 absorbance raw data for the CML and CML-KLH ELISA is shown in the plate map below. 48 of the 96 wells in the well plate were used. Blank wells in the plate map indicate unused wells.

A short description of data set [15]: Direct binding ELISA, CML coat.
Excerpt: as §1, §2, §3
The OD450 absorbance raw data for the CML-only ELISA is shown in the plate map below. 24 of the 96 wells in the well plate were used. Blank wells in the plate map indicate unused wells.

Take `CC1(C)CCC(c2ccc(Cl)cc2)=C(CN2CCN(c3ccc(C(=O)NS(=O)(=O)c4ccc(N[C@H](CCN5CCOCC5)CSc5ccccc5)c(S(=O)(=O)C(F)(F)F)c4)cc3)CC2)C1` [ABT-263]: the “Effect of elimination of senescent cells on running activity and strength” value in data set [1] is “nearly reversed the decline in running activity and improved the loss of strength”.
On to `Nc1nc(O)c2ncn(COC(CO)CO)c2n1` [GCV, ganciclovir], for which the “Effect of elimination of senescent cells on inflammatory factors, HPCs and cardiac function” value in data set [2] (after doxorubicin) was “reduced circulating inflammatory factors, promoted the functional recovery of HPCs and prevented cardiac dysfunction”. The “Survival and cancer metastases vs doxorubicin followed by vehicle” value in [3] (doxorubicin followed by GCV) is “increased survival and reduced cancer metastases”. Also, the “Tumor growth, metastases and metastatic foci vs vehicle” value in data set [3] (surgical removal of palpable tumors prior to treatment) is “smaller tumor growth, reduced cancer metastases and fewer metastatic foci”. Also, the “Effect of elimination of senescent cells on running activity and strength” value in data set [1] was “nearly reversed the decline in running activity and improved the loss of strength”.
As to `N.N.[Cl][Pt][Cl]` [cisplatin], in data set [4], the “Induction of senescence in vivo” value is “induced senescence in various cell types” and the “p16INK4a expression in the skin” value is “elevated p^16INK4a expression in the skin”.
On to `COc1cccc2c1C(=O)c1c(O)c3c(c(O)c1C2=O)C[C@@](O)(C(=O)CO)C[C@@H]3O[C@H]1C[C@H](N)[C@H](O)[C@H](C)O1` [doxorubicin], for which the “Cells that fluoresce (senescence-associated β-galactosidase)” value in data set [5] (0.01 μM for 3 days) is reported as “about 85%”; in [5] (0.1 μM for 3 days), “about 65%”; in data set [5] (0.1 μM for 6 days), “about 85%”; in data set [5] (1 μM for 3 days), “about 60%”; in data set [5] (1 μM for 6 days), “about 85%”. Besides, the Cell death entry in data set [5] (1 μM) is listed as “significant cell death”. In addition, the “Concentration of peak senescence induction” value in [5] (treatment for 3-6 days) was determined as 0.1 µM. Also, the “Induction of cellular senescence (SA-β-gal, DNA synthesis, p16INK4a mRNA, SASP, p21, LaminB1)” value in data set [6] was “symptoms of cellular senescence”. Further, in data set [4], the “Induction of senescence in vivo” value is “induced senescence in various cell types”. In addition, the “Effect on SASP factor genes, HPC function and cardiac function” value in [2] (genetically engineered mice) was “increased expression of SASP factor genes associated with inflammation, reduction of hematopoietic progenitor cell (HPC) function and reduction in cardiac function”. In data set [1] (running activity), the “Chemotherapy-induced fatigue and strength” value was “chemotherapy-induced fatigue, as measured by running activity, and decline in strength”.
`CC(=O)O[C@H]1C(=O)[C@@]2(C)[C@H]([C@H](OC(=O)c3ccccc3)[C@]3(O)C[C@H](OC(=O)[C@H](O)[C@@H](NC(=O)c4ccccc4)c4ccccc4)C(C)=C1C3(C)C)[C@]1(OC(C)=O)CO[C@@H]1C[C@@H]2O` [paclitaxel]: in [6], the “Induction of cellular senescence (SA-β-gal, DNA synthesis, p16INK4a mRNA, SASP, p21, LaminB1)” value is reported as “symptoms of cellular senescence”.
Consider `Cn1nnc2c(C(N)=O)ncn2c1=O` [temozolomide], for which, in data set [4], the “Induction of senescence in vivo” value is listed as “induced senescence in various cell types” and the “p16INK4a expression in the skin” value is “elevated p^16INK4a expression in the skin”.
On to “carboxymethyl lysine MAb (Clone 318003), R&D Systems, catalog no. MAB3247 (antibody)”, for which the OD450 in data set [7] worked out at 0.462 OD450; in data set [8] it was 0.086 OD450; in data set [9], 0.075 OD450; in [10] it was 0.083 OD450; in [11], 0.092 OD450; in data set [12], 0.165 OD450. Besides, the OD450 in data set [13] came to 0.312 OD450; in data set [14], 0.09 OD450.

B1: Parental Anti-AGE: murine anti-AGE IgG2b antibody, heavy chain DNA SEQ ID NO: 12, kappa light chain DNA SEQ ID NO: 14 (antibody)
heavy: MDPKGSLSWRILLFLSLAFELSYGQVQLLQPGAELVKPGASVKLACKASGYLFTTYWMHWLKQRPGQGLEWIGEISPTNGRAYYNARFKSEATLTVDKSSNTAYMQLSSLTSEASAVYYCARAYGNYEFAYWGQGTLVTVSVAKTTPPSVYPLAPGCGDTTGSSVTLGCLVKGYFPESVTVTWNSGSLSSSVHTFPALLQSGLYTMSSSVTVPSSTWPSQTVTCSVAHPASSTTVDKKLEPSGPISTINPCPPCKECHKCPAPNLEGGPSVFIFPPNIKDVLMISLTPKVTCVVVDVSEDDPDVQISWFVNNVEVHTAQTQTHREDYNSTIRVVSTLPIQHQDWMSGKEFKCKVNNKDLPSPIERTISKIKGLVRAPQVYILPPPAEQLSRKDVSLTCLVVGFNPGDISVEWTSNGHTEENYKDTAPVLDSDGSYFIYSKLNMKTSKWEKTDSFSCNVRHEGLKNYYLKKTISRSPG
light: METDTLLLWVLLLWVPGSTGDVVMTQTPLSLPVSLGDQASISCRSRQSLVNSNGNTFLQWYLQKPGQSPKLLIYKVSLRFSGVPDRFSGSGSGTDFTLKISRVEAEDLGLYFCSQSTHVPPTFGGGTKLEIKRADAAPTVSIFPPSSEQLTSGGASVVCFLNNFYPKDINVKWKIDGSERQNGVLNSWTDQDSKDSTYSMSSTLTLTKDEYERHNSYTCEATHKTSTSPIVKSFNRNEC
modifications: Murine anti-AGE IgG2b heavy chain; Murine anti-AGE Kappa light chain
Turning to B1, the OD450 absorbance is 0.086 in the data set with CML-KLH (antibody 0.07 μg/mL); 0.066 in the data set on CML-KLH (antibody 0.21 μg/mL); 0.072 in the data set with CML-KLH (antibody 0.62 μg/mL); 0.063 in the data set on CML-KLH (antibody 1.85 μg/mL); 0.063 in the data set on CML-KLH (antibody 5.56 μg/mL); 0.067 in the data set with CML-KLH (antibody 16.67 μg/mL). Moreover, the OD450 absorbance with CML-KLH (antibody 50 μg/mL) was determined as 0.092; in data set [15] (CML Coat (CML and CML-KLH ELISA), antibody 0.07 μg/mL) it was 0.096; in [15] (CML Coat (CML and CML-KLH ELISA), antibody 0.21 μg/mL) it was 0.096; in data set [15] (CML Coat (CML and CML-KLH ELISA), antibody 0.62 μg/mL) it was 0.085; in data set [15] (CML Coat (CML and CML-KLH ELISA), antibody 1.85 μg/mL) it was 0.099; in data set [15] (CML Coat (CML and CML-KLH ELISA), antibody 5.56 μg/mL) it was 0.115. Moreover, the OD450 absorbance in data set [15] (CML Coat (CML and CML-KLH ELISA), antibody 16.67 μg/mL) is 0.13; in data set [15] (CML Coat (CML and CML-KLH ELISA), antibody 50 μg/mL), 0.142; in data set [15] (second, CML-only ELISA, antibody 0.068587 μg/mL), 0.055; in data set [15] (second, CML-only ELISA, antibody 0.205761 μg/mL), 0.056; in data set [15] (second, CML-only ELISA, antibody 0.617284 μg/mL), 0.103; in [15] (second, CML-only ELISA, antibody 1.851852 μg/mL), 0.078. In addition, the OD450 absorbance amounted to 0.166 in data set [15] (second, CML-only ELISA, antibody 5.555556 μg/mL); 0.226 in data set [15] (second, CML-only ELISA, antibody 16.66667 μg/mL); 0.165 in data set [15] (second, CML-only ELISA, antibody 50 μg/mL). In the data set with CML-KLH (direct binding ELISA), the “Binding to CML-KLH (in words)” value was “very weak to no binding”. In [15] (direct binding ELISA), the “Binding to CML (in words)” value was “very weak to no binding”.

Values taken from patent US20220175916A1, “METHODS AND COMPOSITIONS FOR TREATING CHRONIC EFFECTS OF RADIATION AND CHEMICAL EXPOSURE” (priority 2018, published 2022).
